Laboratory results reported in PMC2879526.

Key:
[1] = target: T1, THAP zinc finger of hTHAP1 K24A (Homo sapiens, UniProt Q9NVV9 1-81, K24A); assay: fluorescence anisotropy
T1 sequence: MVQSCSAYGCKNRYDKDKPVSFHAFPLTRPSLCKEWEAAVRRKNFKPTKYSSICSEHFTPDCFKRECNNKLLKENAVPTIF

[2] = target: T2, THAP zinc finger of hTHAP1 (C62S/C67S) (Homo sapiens, UniProt Q9NVV9 1-81, C62S;C67S); assay: fluorescence anisotropy
T2 sequence: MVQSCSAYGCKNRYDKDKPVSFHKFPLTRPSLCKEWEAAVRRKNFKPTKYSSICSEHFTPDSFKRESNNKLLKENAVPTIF

B1: non-specific 16-bp DNA (dsDNA)
DNA 1: CGATTTGAATTTTAAC
DNA 2: GTTAAAATTCAAATCG
Q: Does B1 bind [1]?
A: binds

B2: rrm1 16-bp (THABS) (dsDNA)
DNA 1: GCTTGTGTGGGCAGCG
DNA 2: CGCTGCCCACACAAGC
Q: For B2, which Kd [2] is on record?
A: 480 ± 60 nM
